Assay [1] deals with RNF167-ECD (transmembrane PA-TM-RING E3 ligase RNF167, extracellular domain) (human) (UniProt Q9H6Y7). Description: SPR; Biacore T100; biotinylated ligand captured on a streptavidin (SA) Series S chip (~100-200 RU); non-biotinylated analyte in twofold dilutions in HBS-P+; 60 s injection at 30 ul/min, 240 s dissociation; regeneration 2 x 10 sec 2M MgCl2; KD from the fit at equilibrium (steady state).

The target of assay [2] is T1, human PTPRU-ECD (human, UniProt Q92729 19-749, biotin where captured on the streptavidin chip).
T1 construct: PTPRU, human, extracellular domain; construct of the ECD is not described; source: Expi293F, purified (Ni-NTA, SEC)
T1 sequence (looked up): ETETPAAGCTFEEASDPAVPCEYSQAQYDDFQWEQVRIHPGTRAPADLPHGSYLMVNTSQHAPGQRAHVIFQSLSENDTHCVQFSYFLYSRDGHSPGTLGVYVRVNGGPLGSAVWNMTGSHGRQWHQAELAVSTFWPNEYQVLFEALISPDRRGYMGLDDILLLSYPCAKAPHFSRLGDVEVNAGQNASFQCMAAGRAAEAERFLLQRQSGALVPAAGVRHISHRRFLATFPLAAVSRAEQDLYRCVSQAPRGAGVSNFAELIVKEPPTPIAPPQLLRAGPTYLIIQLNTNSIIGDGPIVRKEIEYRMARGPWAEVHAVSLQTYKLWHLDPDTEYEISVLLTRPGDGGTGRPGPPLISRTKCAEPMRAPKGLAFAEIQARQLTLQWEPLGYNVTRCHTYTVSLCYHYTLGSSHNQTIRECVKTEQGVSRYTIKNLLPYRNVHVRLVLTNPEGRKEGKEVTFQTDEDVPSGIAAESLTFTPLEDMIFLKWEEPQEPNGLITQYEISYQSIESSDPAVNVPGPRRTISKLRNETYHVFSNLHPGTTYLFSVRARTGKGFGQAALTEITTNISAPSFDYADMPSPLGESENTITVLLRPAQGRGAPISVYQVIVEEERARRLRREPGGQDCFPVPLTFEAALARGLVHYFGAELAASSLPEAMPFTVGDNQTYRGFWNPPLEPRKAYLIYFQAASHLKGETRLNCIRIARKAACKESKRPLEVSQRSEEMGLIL
Description: SPR; Biacore T100; biotinylated receptor ECD or hit protein captured on a streptavidin chip (~100-200 RU), non-biotinylated secreted ligand as analyte in twofold dilutions; HBS-P+ buffer; 1:1 Langmuir model or equilibrium fit. The conditions noted are these: both partners purified. Background: SPR reads the build-up and loss of mass on a sensor chip optically.

Assay [3] deals with T2, human PTPRU-ECD (human, UniProt Q92729 19-749, biotin where captured on the streptavidin chip).
T2 chain: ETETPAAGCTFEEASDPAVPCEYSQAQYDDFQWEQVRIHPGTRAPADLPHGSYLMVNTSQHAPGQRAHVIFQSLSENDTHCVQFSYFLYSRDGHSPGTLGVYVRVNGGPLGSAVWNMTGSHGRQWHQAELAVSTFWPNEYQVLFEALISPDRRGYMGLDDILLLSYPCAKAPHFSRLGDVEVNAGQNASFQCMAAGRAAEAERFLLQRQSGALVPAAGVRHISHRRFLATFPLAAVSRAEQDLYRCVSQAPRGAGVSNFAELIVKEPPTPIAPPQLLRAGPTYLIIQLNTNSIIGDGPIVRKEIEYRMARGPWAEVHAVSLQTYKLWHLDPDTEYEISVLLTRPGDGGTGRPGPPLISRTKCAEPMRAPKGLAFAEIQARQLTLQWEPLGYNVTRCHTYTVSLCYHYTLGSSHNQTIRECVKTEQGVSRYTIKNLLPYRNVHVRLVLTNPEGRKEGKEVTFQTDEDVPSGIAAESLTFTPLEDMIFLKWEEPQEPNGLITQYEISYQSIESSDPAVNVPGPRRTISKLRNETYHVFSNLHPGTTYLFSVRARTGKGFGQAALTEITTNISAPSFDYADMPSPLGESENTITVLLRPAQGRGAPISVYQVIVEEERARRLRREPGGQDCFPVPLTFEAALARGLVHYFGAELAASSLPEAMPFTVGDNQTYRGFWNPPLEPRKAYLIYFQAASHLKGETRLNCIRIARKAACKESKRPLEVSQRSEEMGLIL
Description: SPR.

The target of assay [4] is T3, PTPRU-ECD (receptor protein tyrosine phosphatase U, extracellular domain) (human, UniProt Q92729 19-749, biotin (BirA biotinylation; captured on streptavidin chip)).
T3 construct: receptor-type protein tyrosine phosphatase U (PTPRU, R2B subfamily), human, extracellular domain; source: Expi293F, purified (Ni-NTA, SEC), biotinylated in vitro with BirA
T3 sequence (looked up): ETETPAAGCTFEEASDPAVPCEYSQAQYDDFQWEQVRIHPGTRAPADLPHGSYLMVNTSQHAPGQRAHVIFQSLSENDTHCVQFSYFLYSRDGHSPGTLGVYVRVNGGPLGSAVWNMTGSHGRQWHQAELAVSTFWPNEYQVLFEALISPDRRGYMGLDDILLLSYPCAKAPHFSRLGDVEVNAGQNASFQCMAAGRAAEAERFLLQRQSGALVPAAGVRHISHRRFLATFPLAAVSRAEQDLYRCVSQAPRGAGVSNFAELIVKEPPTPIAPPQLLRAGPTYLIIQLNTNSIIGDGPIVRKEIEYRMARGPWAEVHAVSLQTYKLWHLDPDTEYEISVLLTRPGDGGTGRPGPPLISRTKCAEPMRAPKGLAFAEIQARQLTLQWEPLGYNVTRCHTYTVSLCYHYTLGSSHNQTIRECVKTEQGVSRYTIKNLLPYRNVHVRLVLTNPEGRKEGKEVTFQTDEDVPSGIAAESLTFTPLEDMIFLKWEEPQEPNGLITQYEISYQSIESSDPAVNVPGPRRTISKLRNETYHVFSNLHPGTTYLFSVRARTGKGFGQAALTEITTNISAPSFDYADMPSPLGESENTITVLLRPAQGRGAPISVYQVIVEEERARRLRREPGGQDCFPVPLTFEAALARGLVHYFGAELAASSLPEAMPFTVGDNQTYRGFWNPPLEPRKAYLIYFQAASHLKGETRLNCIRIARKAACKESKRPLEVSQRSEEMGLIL
Description: SPR; Biacore T100; biotinylated ligand captured on a streptavidin (SA) Series S chip (~100-200 RU); non-biotinylated analyte in twofold dilutions in HBS-P+; 60 s injection at 30 ul/min, 240 s dissociation; regeneration 2 x 10 sec 2M MgCl2; kinetic fit with a 1:1 binding (Langmuir) model. Particulars: both partners purified.

Assay [5] concerns the target T3, PTPRU-ECD (receptor protein tyrosine …). The description is as above. The conditions noted are these: both partners purified. The source holds these as a separate data set.

As usually defined, the Kd is the constant that tells how readily two partners part at equilibrium. A lower Kd goes with higher affinity. For orientation: koff means the first-order rate constant of dissociation. Low values mean a long-lived complex, high ones a short-lived complex. In general, kon refers to a measure of how fast the partners come together. Lower therefore signals slower complex formation.

Turning to “TAFA-2 (FAM19A2; chemokine-like family member 2) (from UniProt Q8N3H0 31-131) (ligand)”, the dissociation constant Kd in assay [1] was 314000 nM.

B1: Osteocrin (ligand, human, UniProt P61366 28-133, looked up)
chain: VDVTTTEAFDSGVIDVQSTPTVREEKSATDLTAKLLLLDELVSLENDVIETKKKRSFSGFGSPLDRLSAGSVDHKGKQRKVVDHPKRRFGIPMDRIGRNRLSNSRG
modifications: biotin (biotinylated in vitro with BirA) where used on beads
notes: Osteocrin, human; also called OSTN; Musclin; source: Expi293F, purified (Ni-NTA, SEC); not shown: AviTag, C-terminal, kept
Regarding B1, the Kd in assay [2] was ~12 nM. In addition, in assay [3], the koff is 0.0036 s⁻¹.

B2: Osteocrin (OSTN) (ligand, human, UniProt P61366 28-133, looked up)
chain: VDVTTTEAFDSGVIDVQSTPTVREEKSATDLTAKLLLLDELVSLENDVIETKKKRSFSGFGSPLDRLSAGSVDHKGKQRKVVDHPKRRFGIPMDRIGRNRLSNSRG
notes: Osteocrin (OSTN, Musclin), human; also called Musclin; source: Expi293F, purified (Ni-NTA, SEC), not biotinylated (SPR analyte)
In assay [4], B2 came in with a Kd of 12.7 nM, a koff of 0.00368 s⁻¹ and a kon of 290000 M⁻¹ s⁻¹.

B3: oligodendrocyte-myelin glycoprotein (OMG) (ligand, human, UniProt P23515 25-417, looked up)
chain: ICPLQCICTERHRHVDCSGRNLSTLPSGLQENIIHLNLSYNHFTDLHNQLTQYTNLRTLDISNNRLESLPAHLPRSLWNMSAANNNIKLLDKSDTAYQWNLKYLDVSKNMLEKVVLIKNTLRSLEVLNLSSNKLWTVPTNMPSKLHIVDLSNNSLTQILPGTLINLTNLTHLYLHNNKFTFIPDQSFDQLFQLQEITLYNNRWSCDHKQNITYLLKWMMETKAHVIGTPCSTQISSLKEHNMYPTPSGFTSSLFTVSGMQTVDTINSLSVVTQPKVTKIPKQYRTKETTFGATLSKDTTFTSTDKAFVPYPEDTSTETINSHEAAAATLTIHLQDGMVTNTSLTSSTKSSPTPMTLSITSGMPNNFSEMPQQSTTLNLWREETTTNVKTPLPS
notes: oligodendrocyte-myelin glycoprotein (OMG), human; source: Expi293F, purified (Ni-NTA, SEC), not biotinylated (SPR analyte)
In assay [5], B3 came in with a Kd of 70.6 nM, a koff of 0.000472 s⁻¹ and a kon of 6690 M⁻¹ s⁻¹.

Values taken from paper PMC9578707, “Identification of orphan ligand-receptor relationships using a cell-based CRISPRa enrichment screening platform” (eLife, 2022).
